In article PMC11905679:

Assays:
α-chymotrypsin (bovine) [1] = target: α-chymotrypsin (bovine)
α-chymotrypsin (bovine) [2] = assay: enzyme inhibition kinetics
α-chymotrypsin (bovine) [3] = target: α-chymotrypsin (bovine); remark: listed apart in the source
α-chymotrypsin (bovine) [4] = target: α-chymotrypsin (bovine); remark: listed apart in the source

Question: “Trichinella spiralis serine protease inhibitor (Ts-serpin) (natural protein)” was tested. Which inhibition rate of α-chymotrypsin enzyme activity at 200 nM serpin (α-chymotrypsin (bovine) [1]) did it give?
Answer: The inhibition rate of α-chymotrypsin enzyme activity at 200 nM serpin was greater than 80%.

Question: What about the Ki (α-chymotrypsin (bovine) [2]) of the same substance?
Answer: The Ki was 49.2 nM.

Question: And the stoichiometry of inhibition (SI), residual chymotrypsin activity against the molar ratio [I]/[E] (α-chymotrypsin (bovine) [3])?
Answer: Its stoichiometry of inhibition (SI), residual chymotrypsin activity against the molar ratio [I]/[E] is 1.21.

Question: What about the k3, rate constant of the irreversible inhibition of α-chymotrypsin (BTEE hydrolysis, 256 nm) (α-chymotrypsin (bovine) [4]) of the same substance?
Answer: Its k3, rate constant of the irreversible inhibition of α-chymotrypsin (BTEE hydrolysis, 256 nm) is 0.00247 s⁻¹.

Question: Which inhibition rate of α-chymotrypsin enzyme activity at 200 nM serpin (α-chymotrypsin (bovine) [1]) does the source give for “Trichinella pseudospiralis serine protease inhibitor (Tp-serpin) (natural protein)” here?
Answer: The inhibition rate of α-chymotrypsin enzyme activity at 200 nM serpin was greater than 80%.

Question: And the Ki (α-chymotrypsin (bovine) [2])?
Answer: The Ki was 47.9 nM.

Question: And the stoichiometry of inhibition (SI), residual chymotrypsin activity against the molar ratio [I]/[E] (α-chymotrypsin (bovine) [3])?
Answer: Its stoichiometry of inhibition (SI), residual chymotrypsin activity against the molar ratio [I]/[E] is 1.19.

Question: And the k3, rate constant of the irreversible inhibition of α-chymotrypsin (BTEE hydrolysis, 256 nm) (α-chymotrypsin (bovine) [4])?
Answer: Its k3, rate constant of the irreversible inhibition of α-chymotrypsin (BTEE hydrolysis, 256 nm) is 0.00235 s⁻¹.
